According to the RNAGym collection of RNA variant scans (doi:10.1073/pnas.2313332121):
Fewer inactive variants are shown than the library holds.

B1: TPR 5TU (parent)
chain: GGAUCUUCUCGAUCUAACAAAAAAGACAAAUCUGCCACAAAGCUUGAGAGCAUCUUCGGAUGCAGAGGCGGCAGCCUUCGGUGGCGCGAUAGCGCCAACGUUCUCAACUAUGACACGCAAAACGCGUGCUCCGUUGAAUGGAGUUUAUCAUG

Variants of: B1
Experiment: polymerase ribozyme fitness, log enrichment relative to wild type (log ratio); higher = more active; in vitro selection for triplet polymerase activity
Outline: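 A heterodimeric triplet polymerase ribozyme had each of its subunits mutagenized by PCR into a library, which was transcribed. One round of in vitro selection, done in triplicate, annealed each library with a biotinylated primer, its partner subunit and triplets, then incubated it frozen at −7 °C before gel excision of extended constructs, streptavidin-bead capture and RT-PCR. Fitness is the logarithm of genotype enrichment relative to wild-type enrichment, based on Illumina sequencing of inputs and outputs and inverse-variance-weighted replicate averages. A base-2 logarithm is used, and genotypes were kept only with ≥10 input reads and ≥1 read per output.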

Question: Which “polymerase ribozyme fitness (log ratio)” value does the source give for GGAUCUUCUCGAUCUAACAAAAAAGACACAUCUGCCCCAAAGCUUGAGAGCAUCUUCGGAUGCGGAGGCGGCAGCCUUCGGUGGCGAGAUAGCGGCAACGUUCUCAACUAUGACACGCAAAACGCGUGCUCCGUUGAAUGGAGUUGAUCAUG here?
Answer: ≤ -4.2

Question: Which “polymerase ribozyme fitness (log ratio)” value does the source give for GGAUCUUCUCGAUCUAACAAAAAAGACACAUCUGCCACAAAGCUUGAGAGCAACUUCGGAUGCAGAGGCGGCAGCCUUCGGUGCCGCGAUAGUGCCAACGUUCUCAACUAUGACACGCAAGACGGGUGCUCCGUUGAAUGGAGUUUAUCAUG here?
Answer: ≤ -4.2

Question: Which “polymerase ribozyme fitness (log ratio)” value does the source give for GGAUCUUCUCGAUCUAACAAAAAAGACACAUCUGCCCCAAAGCUUGAGAGCAUCUUCGGAUGCAGAGGCGGCAACCUUCGGUGGCGCGAUAGCGCCGACGUUCUCAACUAUGACACGCAAAACGCGUGCACCGUUGAAUGGAGUUUAUCAUG here?
Answer: ≤ -4.2

Question: For GGAUCUUCUCGAUCUAACAAAAAAGACACUUCUGCCACAAAUCUUGAGAGCAUCUUCGGAUGCAGAGGCGGCAGCCUUCGGUGGCGCGAUAGUGCCAACGUUCUGAACUAUGACACGCAAAACGCGUGCUCCGUUGAAGGGAGUUUAUCAUG, which “polymerase ribozyme fitness (log ratio)” value is on record?
Answer: ≤ -4.2

Question: With GGAUCUUCUCGAUCUAACAAAAAAGACACAUCUGCCACAAAGCUUGAGAGCAUCAUCGGAUGCAGAGGCGGCAGACUUCGGUGGUGCGAUAGCGCCAACGUUCUCAACUAUGACACGCAAAACGCGUGCUCCGUUGAAUGCAGUUUAUCAUG as the variant, how does the “polymerase ribozyme fitness (log ratio)” value read?
Answer: ≤ -4.2

Question: Which “polymerase ribozyme fitness (log ratio)” value does the source give for GGAUCUUCUCGAUCUAACAAAAAAGACACAUCUGCCACAAAGCAUGAGAGCAUCUUCGUAUGCAGAGGCGGUAGCCUUCGGUGGCGCGAUAGCGCCAACGUUCUCAACUAUGACACGCAAAACGCGUGCUGCGUUGAAUGGAGUUUAUCAUG here?
Answer: ≤ -4.2

Question: Which “polymerase ribozyme fitness (log ratio)” value does the source give for GGAUCUUCUCGAUCUAACAAAAAAGACACAUCUGUCACAAAGCUUGAGAGCAACUUCGGAUGCAGAGGCGGCAGCGUUCGGUGGCGCGAUAACGCCAAAGUUCUCAACUAUGACACGCAAAGCUCGUGCUCCGUUGAAUGGAGUUUAUCAUG here?
Answer: ≤ -4.2

Question: With GGAUCUUCUCGAUCUAACAAAAAAGACACAUCUGCCACAAAGCUUGAGAGCCUCUUCGGAUGCAGAGGCGGCAGCCUUCGGUGGCGCUAUAGCGCCAACGUUCUCAACUAUGACACGCAAAACGCGUGCUCCGUUGAAUGGAGUUUAUCAUG as the variant, how does the “polymerase ribozyme fitness (log ratio)” value read?
Answer: ≤ -4.2

Question: With GGAUCUUCUCGAUCUAACAAAAAAGACUAAUCUGCCACAAAGCAUGAGAGCAUCUUCGGAUGCAGAGGCGGCAGCCUUCGGUGGCGGGAUAGCGCCAACGUUCUCCACUAUGACACGCAAAACGCGUGCUCCGUUGAAUGGAGUUUAUCAUG as the variant, how does the “polymerase ribozyme fitness (log ratio)” value read?
Answer: ≤ -4.2

Question: With GGAUCUUCUCGAUCUAACAAAAAAGACUAAUCUGCCACAAAGCUUGAGAGCAUCUUCGGAUGCAGAGGCGGCAGCCUUCGGUGGCGCAAUAGCACCAAGGUUGACAGCUAUGACACGCAAAACGCGUGCUCCGUUGAAUGGAGUUUAUCAUG as the variant, how does the “polymerase ribozyme fitness (log ratio)” value read?
Answer: ≤ -4.2

Question: With GGAUCUUCUCGAUCUAACAAAAAAGACACAUCUGCCACAAAGCUUGAGAGCAUCUUCGGAUGCAGAGGCGGCAGCCUUCGGUGGUGCGAUAGCGCCAACGUUCUCAACUAUGACACGCAAAACGCGUGCUCCGUUGAAUGGAGUUUAUCAUG as the variant, how does the “polymerase ribozyme fitness (log ratio)” value read?
Answer: -3.79

Question: For GGAUCUUCUCGAUCUAACAAAAAAGACACAUCUGCCACAAAGCUUGAGCGCAUCUUCGGAAGCAGAGGCGGCAGCCUUCGGUGGCGCGAUAGCGCCAACGUUCUCAACUAUGACACGCAAAACGCGUGCUCCGUUGACUGGAGUUUAUCAUG, which “polymerase ribozyme fitness (log ratio)” value is on record?
Answer: ≤ -4.2

Question: For GGAUCUUCUCGAUCUAACAAAAAAGACACAUCUGCCUCAAAGCUUGAGAGCAUCUUCGGAUGCAGAGGCGGCAGCCUUCGGUGGCGCGAUAGCGCCAACGUUCUCAAUUAUGACACGCAAAACGCGUGCUCCGUUGAAUGGAGUUUAUCAUG, which “polymerase ribozyme fitness (log ratio)” value is on record?
Answer: -4.09

Question: With GGAUCUUCUCGAUCUAACAAAAAAGACACAUCAGCCACAAUACUUGAGAGCAUCUUCGGAUGCAGAGGCGGCAGCCUUCGGUCGCGCGAUAGCGCUAACGUUCUCAAGUAUGACACGCAAAACGCGUGCUCCGUUGAAUGGAGUUUAUCAUG as the variant, how does the “polymerase ribozyme fitness (log ratio)” value read?
Answer: ≤ -4.2

Question: For GGAUCUUCUCGAUCUAACAAAAAAGACUAAUCUGCCACAAAGCUUGAGAGCAUCUUCGGAAGCAGAGGCGGCACCCUUCGGUGGCGCGAUAGCGCCAACGUUCUCAACUAUGACACGCAAAACGCGUGCUCCGUUGAAUGGAGUUUAUCAUG, which “polymerase ribozyme fitness (log ratio)” value is on record?
Answer: ≤ -4.2

Question: With GGAUCUUCUCGAUCUAACAAAAAAGACACAUCUGCCACAAAUCUUGAGAGCAUGUUCGGAUGCAGAGGCGGCAGCCUUCGGUGGCGCGAUAGGCCCAUCGUUCUCAACUAUGACACGCAAAACGCGUGCUCCGUUAAAUGGGGUUUAUCAUU as the variant, how does the “polymerase ribozyme fitness (log ratio)” value read?
Answer: ≤ -4.2

Question: With GGAUCUUCUCGAUCUAACAAAAAAGACACAUCUGCCACAAAGCUAGAGAGCAUCUUCGGAUGCAGAGGCGGCAGCCUUCGGUGGCGCGAUAGCGGCAACGUUCUCAACUAUGACACGCAAAACGCGUGCUCCGUUGAAUGGAGUUUAUCAUG as the variant, how does the “polymerase ribozyme fitness (log ratio)” value read?
Answer: ≤ -4.2

Question: For GGAUCUUCUCGAUCUAACAAAAAAGACACAUCUGCCACAAAGCUUGACAGCAUCUUCGGAUGCAGAGGCGGCAGCCUUAGGUGGCGCGAUAGCGCCAACGUUCUCAACUAUGACACGCAAAGCUCGUGCUCCGUUGAAUGGAGAGUAUCAUU, which “polymerase ribozyme fitness (log ratio)” value is on record?
Answer: ≤ -4.2

Question: For GGAUCUUCUCGAUCUAACAAAAAAGACACAUCUGCCACAAAGCUUGAGAGCAUCUUCGGAUGCAGACGCGGCAGCCUUCGGUGGCGCGUUAGCUCCAACGUUCUCAACUAUGACACGCAAAACGCGUGCUCCGUUGAAUGGAGUUUAUCAUG, which “polymerase ribozyme fitness (log ratio)” value is on record?
Answer: ≤ -4.2
